This note sets out measurements from publication PMC8682777, “Mechanisms of distinctive mismatch tolerance between Rad51 and Dmc1 in homologous recombination” (Nucleic Acids Research, 2021).

Series [1] concerns the molecule itself. The series is described as follows: cryo-EM structure; helical filaments of 4 uM ScDmc1 on 150-mer ssDNA (presynaptic) or after strand exchange with 150-bp dsDNA and 0.4 uM Hop2-Mnd1 (postsynaptic); 35 mM Tris-HCl pH 7.5, 96 mM KCl, 2 mM ATP, 5 mM CaCl2, 1 mM DTT, 37°C.
Series [2] deals with the molecule itself. The series is described as follows: cryo-EM structure; helical filaments of 2 uM hRAD51 on 150-mer ssDNA with 2 uM RS-1 (presynaptic, wt only) or after strand exchange with dsDNA and 0.2 uM Hop2-Mnd1 without RS-1 (postsynaptic, wt and 273-PG-274); 25 mM HEPES pH 7.5, 25 mM KCl, 4 mM MgCl2, 4 mM AMP-PNP, 37°C.
The target of series [3] is T1, ScDmc1 wt (UniProt P25453 1-334).
T1 sequence: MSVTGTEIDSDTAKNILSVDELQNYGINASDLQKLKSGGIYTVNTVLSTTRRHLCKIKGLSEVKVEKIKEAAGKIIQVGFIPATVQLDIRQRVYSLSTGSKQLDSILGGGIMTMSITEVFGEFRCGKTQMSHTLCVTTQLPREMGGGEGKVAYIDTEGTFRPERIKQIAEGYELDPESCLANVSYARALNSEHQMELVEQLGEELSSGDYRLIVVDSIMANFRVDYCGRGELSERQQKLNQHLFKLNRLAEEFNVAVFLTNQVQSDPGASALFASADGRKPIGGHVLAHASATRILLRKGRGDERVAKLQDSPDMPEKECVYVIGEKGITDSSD
The series is described as follows: cryo-EM; 2 mM ATP, 5 mM Ca2+; presynaptic complex; hRAD51: 25 mM HEPES pH 7.5, 25 mM KCl, 4 mM MgCl2, 4 mM AMP-PNP, 37 C; ScDmc1: 35 mM Tris-HCl pH 7.5, 96 mM KCl, 2 mM ATP, 5 mM CaCl2, 1 mM DTT, 37 C. Strand-exchange/smFRET activity assays and MM-GBSA energies not listed. To be noted: protein: recombinant; tags: His6.

For series [4], the target named is T2, hRAD51 wt (Homo sapiens (human), UniProt Q06609 1-339). Nature of the series: cryo-EM; 4 mM AMP-PNP, 4 mM Mg2+, RS-1; presynaptic complex; hRAD51: 25 mM HEPES pH 7.5, 25 mM KCl, 4 mM MgCl2, 4 mM AMP-PNP, 37 C; ScDmc1: 35 mM Tris-HCl pH 7.5, 96 mM KCl, 2 mM ATP, 5 mM CaCl2, 1 mM DTT, 37 C. Strand-exchange/smFRET activity assays and MM-GBSA energies not listed. Conditions: protein: recombinant; chain copies: 10.

Another series concerns the target hRAD51 273-PG-274 (Homo sapiens (human), UniProt Q06609 1-339, V273P;D274G). The series is described as follows: cryo-EM; AMP-PNP, Mg2+, Hop2-Mnd1 added, no RS-1; postsynaptic complex; hRAD51: 25 mM HEPES pH 7.5, 25 mM KCl, 4 mM MgCl2, 4 mM AMP-PNP, 37 C; ScDmc1: 35 mM Tris-HCl pH 7.5, 96 mM KCl, 2 mM ATP, 5 mM CaCl2, 1 mM DTT, 37 C. Strand-exchange/smFRET activity assays and MM-GBSA energies not listed. To be noted: protein: recombinant; chain copies: 16; blunt.

In series [5] the target is T1, ScDmc1 wt. Nature of the series: cryo-EM; 2 mM ATP, 5 mM Ca2+, Hop2-Mnd1 added; postsynaptic complex; hRAD51: 25 mM HEPES pH 7.5, 25 mM KCl, 4 mM MgCl2, 4 mM AMP-PNP, 37 C; ScDmc1: 35 mM Tris-HCl pH 7.5, 96 mM KCl, 2 mM ATP, 5 mM CaCl2, 1 mM DTT, 37 C. Strand-exchange/smFRET activity assays and MM-GBSA energies not listed. Conditions: protein: recombinant; tags: His6; blunt.

In series [6] the target is T2, hRAD51 wt. Nature of the series: cryo-EM; AMP-PNP, Mg2+, Hop2-Mnd1 added to trigger exchange, no RS-1; postsynaptic complex; hRAD51: 25 mM HEPES pH 7.5, 25 mM KCl, 4 mM MgCl2, 4 mM AMP-PNP, 37 C; ScDmc1: 35 mM Tris-HCl pH 7.5, 96 mM KCl, 2 mM ATP, 5 mM CaCl2, 1 mM DTT, 37 C. Strand-exchange/smFRET activity assays and MM-GBSA energies not listed. To be noted: protein: recombinant; chain copies: 16; blunt.

B1: yeast Dmc1 wild type (natural protein)
chain: T1 sequence
notes: Dmc1 meiotic recombinase, yeast (ScDmc1); wt construct pNRB150, a gift from Dr Zhi Qi; Stood as a helical filament on ssDNA (presynaptic) or dsDNA (postsynaptic) with ATP-Ca2+; The stored protein is named His6-ScDmc1 and no cleavage of the tag is described; also called ScDmc1; ScDmc1 wt; source: E. coli BLR(DE3) plysS (RecA-deficient), purified (Talon beads, Heparin)
For the molecule B1, the binding result in series [1] is given as “binds”.

B2: human RAD51 mutant 273-PG-274 (natural protein)
chain: MAMQMQLEANADTSVEEESFGPQPISRLEQCGINANDVKKLEEAGFHTVEAVAYAPKKELINIKGISEAKADKILAEAAKLVPMGFTTATEFHQRRSEIIQITTGSKELDKLLQGGIETGSITEMFGEFRTGKTQICHTLAVTCQLPIDRGGGEGKAMYIDTEGTFRPERLLAVAERYGLSGSDVLDNVAYARAFNTDHQTQLLYQASAMMVESRYALLIVDSATALYRTDYSGRGELSARQMHLARFLRMLLRLADEFGVAVVITNQVVAQPGGAAMFAADPKKPIGGNIIAHASTTRLYLRKGRGETRICKIYDSPCLPEAEAMFAINADGVGDAKD
notes: RAD51 recombinase, human, with V273 and D274 of Loop2 changed to P and G (the residues of hDMC1); made from the hRAD51 wt construct by point mutation; Stood as a helical filament on dsDNA (postsynaptic complex, without RS-1); Only an EM map is deposited (EMD-31155), no PDB model; also called PG mutant; source: E. coli BLR(DE3) plysS (RecA-deficient), purified as hRAD51 wt
Take B2: the binding result in series [2] is given as “binds”.

B3: 150-mer ssDNA oligo 4 (ssDNA)
DNA: TAAATAAGATAAGGATAATACAAAATAAGTAAATGAATAAACAGAGAAAATAAAGTAAAGGATATAAAAAATGAACATAAAGAATAAGTAAATGAATAAAACATAATAGGAATAAATATAGGAAATGAAATAAAAGAGACATAAATAAGA
As to B3, the binding result with ScDmc1 wt [3] and with hRAD51 wt [4] was “binds” each time.

B4: 150-bp homologous dsDNA oligo 4/oligo 5 (postsynaptic) (dsDNA)
DNA 1: B3 DNA
DNA 2: TCTTATTTATGTCTCTTTTATTTCATTTCCTATATTTATTCCTATTATGTTTTATTCATTTACTTATTCTTTATGTTCATTTTTTATATCCTTTACTTTATTTTCTCTGTTTATTCATTTACTTATTTTGTATTATCCTTATCTTATTTA
Consider B4, for which the binding result in the series with hRAD51 273-PG-274, in the series with ScDmc1 wt [5] and with hRAD51 wt [6] was “binds” throughout.
